Experimental data published in the nanobody polyreactivity screen of Harvey et al. (2022).

Test: yeast display, Sf9 membrane polyspecificity reagent, FACS + sequencing; frameworks hold sequencing errors
Procedure, shortened: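 Synthetic nanobody libraries on Saccharomyces cerevisiae BJ5465 were galactose-induced for 36–48 hours, stained 1 hour at 4 °C with 10% biotinylated, detergent-solubilized Sf9 membrane reagent and enriched on streptavidin microbeads. FACS then separated cells into low and high (top ~1%) gates by anti-HA (expression) and streptavidin (reagent binding) fluorescence. Genes were colony-PCR amplified, MiSeq 2 × 250 sequenced and CDR-length filtered. A clone's polyreactivity label is that of its gate of origin.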

| Sequence | polyreactivity (PSR sort gate) |
| --- | --- |
| QVHLQESGGGLVQAGGSLRLSCPASGSISRYYDMGWYRQAPGKEREFVAGISGGAITYYADSVKGRFTISRDNAKNTVYLQMNSLKPEDTAVYYCAADTGVYQYHSYWGQGTQVTVSS | low polyreactivity |
| QVQLVESGGGLVQAGGSLRLSCAASGSTFGSYAMGWYRQAAGKERELVAGNSWSGGRTYYADSVKGRFTISRDNAKNTVYLQMNSLKPEDTAVYYCARDTGYYYARYNYWGQGTQVTVSS | low polyreactivity |
| QVQLVESGGGLVQAGGSLRLSCAPSGITFSHYAMGWYRQAPGKERELVAGITWSGGRTYYADSVKGRFTISRDNAKNTVYLQMNSLKPEDTAVYYCAPIHRTGYDMDYWGLGTQVTVSS | low polyreactivity |
| QVQLVESGGGLVQAGGSLRLSCAASGFTIRSYAMGWYRQAPGKERELVAGITWRSSSTYYADSVKGRFTISRDNAKNTVYLQMNSLKPEDTAVYYCAARAVYRFNYWGQGTQVTVSS | high polyreactivity |
| QVQLVESGGGLVQAGGSLRLSCAASGRIFARYAMGWYRQAPGTERELVASITRSGGSTYYADSVKGRFTISRDNAKNTVYLQMNSLKPEDTAVYYCAARYGRVRDVIPYDYWGQGTQVTVSS | high polyreactivity |
| QVQLQESGDGLLQAVGSLRLSCAASGYISGYYYMGWYRQAPGKERELVAGIDAFGSSTNYADCVKGRFTISRDNGKNTVYLQMNSLKPEDTAVYYCAARPDGDRLFSYWGQGTQVTVSS | low polyreactivity |
| QVQLVESGGGLVQAGGSLRLSCAASVSTFVRYAMGWYRPAPGKDRELVAAIDGGGTTKYADSVKGRFTISRDNAKNTVYLQMNSLKTEDTAVYYCAADQVWGYDSWGQGTQVTVSS | low polyreactivity |
| QVQLVEAGGGLVQAGGSLRLSCAASGRIFVYYTMGWYRQAPGKERELVAAIIGGGSTNYADSVKGRFTISRDNAKNTVYLQMNSLKPEDTAVYDCAAVRYRYSYVSHSRIYDYWGQGTQVTVSS | high polyreactivity |
| QVQLVESGGGLVQAGGSLRLSCAASGSTFFRYTMGWYRQAPGKERELVAAITSGGGTDYADSVKGRFTISRDNGKNTVYLQMNSLKPDDTAVYYCAVILSWRDYYLYWRGSWRDDYWGQGTQVSVSS | low polyreactivity |
| QVQLVESGGGLVQAGGSLRLSCAASGFTFSRNAMGWYRQAPGKERELVAAITWSGGRTYYADSVKGRFTLSRDNAKNTVYLQMNSLKPEDTAVYYCAARKYHLRSAYDYWGHGTQVTVSS | low polyreactivity |
| QVQLVESGGGLVQAGGSLRLSCAASGITFPANAMGWYRQAPGKERELVAAISTSGGSTYYADSVKGRFTISRDNAKNTVYLQMNSLKPEDTAVYYCAATIYPYYSLYSHYYWGQCTQVTVSS | high polyreactivity |
| QVQLVESGGGLVQAGGSLRLSCAASGSIFSINAMGWYRQAPGKERELVAAISWSGGSTYYADSVKGRFTISRDNAKNTVYLQMNSLKPEDTAVYYCNAEEDEYGELDYWGLGTQVTVSS | low polyreactivity |
| QVQRVESGGGLVQAGGSLRLTCAASGLTFRTYAMGWYRQAPGKERELVAAISGTGGTTYYADSVKGRFTISRDNAKNTVYLQMNSLKPEDTAVYYCNKRWRRPYPYDYWGQGSQVTVSS | high polyreactivity |
| QVQLVESGGGLVQAGGSLRLSCAASGLIFVGNAMGWYRQAPGKERELVAAISSRGGRTYYADSVKGRFTISRDNAKNTVYLQMNSLKPEDTAVYYCNAAKSQWGFEYWGQGTQVTVSS | high polyreactivity |
| QVQLQESGGRLVQAGVSLRLSCAASGSIYDDTYMGWYRQAPGKERELVATIDSGSTTNYADSVKGRITISRDNAKNTVYLQMNSLKPEDTAVYYCAAADSHIDYFDYWGQGTQVTVSS | low polyreactivity |
| QVQLVESGGGLVQAGGSLSLSCAASGSTFAYYAMGWSRQAPGKERELVAGITWTGGSTYYADSVKGRFTISRDNAKNTVYLQMNSLKPEDTAVYYCAVTYPYGYEYDHWGQGSQVTVSS | low polyreactivity |
| QVQLVEAGGCLVHAGGSLRLSCAASGRIFVGNAMGWYRQAPGKERELVAAINNGGTTYYADSVKGRFTIARDNGKNTVYLQMNSLKPEDTAVYHCAATPYRGTRSYLIGELDYWGQGTQVTVSS | low polyreactivity |
| QFQLVESVVGLVQAGGSLRLSCAASGTTFGVNDMRWYRQAPGKEREFVADITTSGGSTYYADSVKGRFTISRDNAKNTVYLQMNSLKPEDTAVYYCAADLWPFEHDDYWGQGTQVTVSS | low polyreactivity |
| QVQLVESGGGLVQAGGSLRLSCAASVRIFTRYAMGWYRPAPGKERELVAGISYRGGGTYYADSVKGRFTISRDNAKNTVYLQMNSLKPEDTAVYYCATRRYPYSLLYKYWGQGTQVTVSS | high polyreactivity |
| QVQLVESGGGLVQAGGRLRLSCAASGSIFYNYAMGWYRQAPGKERELVAAITRSGGSTYYADSVKGRFTISRDNAKNTVYLQMNSLKPEDTAVYYCAARYPFGSLGRYGYWGQGTQVTVSS | high polyreactivity |
| QVQLVESGGGLVQAGGSLRLSCAASGSIIFLYAMGWYRQAPGKERELVASISTSGTTITYYADSVKGRFTISRDNAQNTGYLQMNSLKPEDTAVYYCAAEAYGNRDYWGQGTQVTVSS | low polyreactivity |
